In assay [1] the target is T1, recombinant rat TL1A (rat, UniProt Q8K3Y7 76-252).
T1 construct: biotinylated for SPR capture
T1 sequence: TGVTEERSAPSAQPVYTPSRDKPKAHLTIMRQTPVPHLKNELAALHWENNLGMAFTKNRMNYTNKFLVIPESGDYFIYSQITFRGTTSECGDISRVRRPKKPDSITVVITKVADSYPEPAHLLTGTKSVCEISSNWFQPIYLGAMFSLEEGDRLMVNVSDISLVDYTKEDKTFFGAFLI
The assay is described as follows: SPR, antibody injected over captured biotinylated TL1A, 37° C. The method, then: (§1) For these analyses, kinetic assays were conducted at 37° C. using a collection rate of 10 Hz on a Biacore™ T200 instrument (GE Healthcare). […] The association phase was 90 seconds, and the dissociation phases were 1600 seconds over human, cynomolgus monkey and rabbit TL1A and 180 seconds for mouse and rat TL1A.
(§2) In order to determine binding to TL1A, kinetic assays were conducted at 37° C. using a collection rate of 10 Hz on a Biacore™ T200 instrument (GE Healthcare).

Assay [2] addresses T2, recombinant mouse TL1A (mouse, UniProt Q5UBV8 75-252).
T2 construct: biotinylated for SPR capture
T2 chain: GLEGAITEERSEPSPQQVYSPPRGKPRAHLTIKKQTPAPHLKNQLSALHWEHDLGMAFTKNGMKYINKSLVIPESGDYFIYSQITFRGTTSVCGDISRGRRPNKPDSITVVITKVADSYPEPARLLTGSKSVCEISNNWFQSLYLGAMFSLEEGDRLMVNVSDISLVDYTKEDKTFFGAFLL
The assay is described as above. How it is done: as §1, §2

Assay [3] deals with T3, recombinant cynomolgus monkey TL1A (cynomolgus monkey, UniProt O95150 72-251 (human entry)).
T3 construct: also called Cyno TL1A
T3 chain: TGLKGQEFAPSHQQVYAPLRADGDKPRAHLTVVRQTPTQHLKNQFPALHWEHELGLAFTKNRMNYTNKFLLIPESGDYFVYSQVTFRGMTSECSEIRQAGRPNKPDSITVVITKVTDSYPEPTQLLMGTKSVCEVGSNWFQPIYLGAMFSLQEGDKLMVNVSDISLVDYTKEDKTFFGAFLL
Briefly: SPR, Biacore T200, 37 C; biotinylated TL1A captured on Biotin CAPture chip, antibody injected. The method, then:
(§3) In order to determine binding to TL1A, kinetic assays were conducted at 37° C. using a collection rate of 10 Hz on a Biacore™ T200 instrument (GE Healthcare). […] For the analysis of the p40 binding arm, kinetic assays were conducted at 37° C. using a collection rate of 10 Hz on a Biacore™ 8 K+ instrument (GE Healthcare).

Assay [4] has as its target T4, recombinant rat TL1A (rat, UniProt Q8K3Y7 76-252).
T4 sequence: T1 sequence
The assay is described as follows: SPR, Biacore T200, 37 C; biotinylated TL1A captured on Biotin CAPture chip, antibody injected; KD value is approximate. How it is done:
as §3

The target in assay [5] is T5, recombinant human TL1A (human, UniProt O95150 71-251).
T5 construct: TL1A is described as a homotrimer; Biotinylated for SPR capture; also called TNFSF15
T5 chain: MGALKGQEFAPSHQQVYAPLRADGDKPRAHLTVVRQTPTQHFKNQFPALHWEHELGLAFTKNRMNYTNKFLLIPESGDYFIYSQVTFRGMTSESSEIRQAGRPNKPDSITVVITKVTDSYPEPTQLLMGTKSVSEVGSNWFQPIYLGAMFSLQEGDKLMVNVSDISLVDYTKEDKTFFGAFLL
Briefly: SPR, 37 C; biotinylated human TL1A captured on Biotin CAPture chip, antibody injected. The method, then: SPR was utilized to determine if the affinity constants of each arm of the bispecific variants binding human IL-23, containing the p40 subunit, and human TL1A were the same for each bispecific approach. For the analysis of the p40 binding arm, kinetic assays were conducted at 37° C. using a collection rate of 10 Hz on a Biacore™ 8 K+ instrument (GE Healthcare). An anti-human IgG antibody (anti-human Fc, GE Healthcare, 22-0648-88) was amine coupled to all four flow cells of a carboxymethylated dextran coated sensor chip (GE Healthcare,) using the manufacturer's recommended protocol. […] For the analysis of the TL1A binding arm, kinetic assays were conducted at 37° C. using a collection rate of 10 Hz on a Biacore™ T200 instrument (GE Healthcare).
As described above in EXAMPLE 12, SPR was utilized to determine if the affinity constants of each arm of the bispecific variants binding human IL-23, containing the p40 subunit, and human TL1A were the same for each bispecific variant.

Assay [6] concerns the target T5, recombinant human TL1A. The assay is described as follows: cell-based or functional assay.
Assay [7] concerns the target T6, human IL-23 (human, UniProt P29460 23-328; Q9NPF7 20-189).
T6 sequence 1: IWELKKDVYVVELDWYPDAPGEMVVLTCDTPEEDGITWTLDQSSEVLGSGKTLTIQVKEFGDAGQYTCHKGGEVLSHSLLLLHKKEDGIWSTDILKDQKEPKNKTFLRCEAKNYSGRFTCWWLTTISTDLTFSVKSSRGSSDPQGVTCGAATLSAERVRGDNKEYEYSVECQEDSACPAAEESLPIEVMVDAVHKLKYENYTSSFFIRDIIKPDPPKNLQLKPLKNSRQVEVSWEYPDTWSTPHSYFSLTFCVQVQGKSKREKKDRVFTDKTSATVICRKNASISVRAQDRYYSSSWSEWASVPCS
T6 sequence 2: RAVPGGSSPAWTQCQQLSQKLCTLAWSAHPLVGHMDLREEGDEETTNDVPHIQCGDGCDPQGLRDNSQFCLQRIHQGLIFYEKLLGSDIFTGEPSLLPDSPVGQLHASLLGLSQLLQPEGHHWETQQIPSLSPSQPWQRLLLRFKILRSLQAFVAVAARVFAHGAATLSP
The assay is described as follows: cell-based or functional assay.

Assay [8] deals with T7, human IL-12 (human, UniProt P29460 23-328; P29459 23-219).
T7 sequence 1: T6 sequence 1
T7 sequence 2: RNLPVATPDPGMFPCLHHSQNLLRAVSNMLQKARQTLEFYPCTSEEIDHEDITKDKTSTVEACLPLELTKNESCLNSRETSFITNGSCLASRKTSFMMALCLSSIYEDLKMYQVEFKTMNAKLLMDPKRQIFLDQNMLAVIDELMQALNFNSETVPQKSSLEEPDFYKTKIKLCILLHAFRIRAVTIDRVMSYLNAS
The assay is described as follows: cell-based or functional assay.

B1: p40TL1A-0033 (bispecific antibody, human IgG1, kappa)
chain 1: not shown
chain 2: QVQLVQSGAEVKKPGASVKVSCKASGYDYTYYGISWVRQAPGQGLEWMGWISTYNTGTHYAPSLQGRVTMTTDTSTSTAYMELRSLRSDDTAVYYCARESYYGSGAFRGGMDVWGQGTTVTVSSASTKGPSVFPLAPSSKSTSGGTAALGCLVKDYFPEPVTVSWNSGALTSGVHTFPAVLQSSGLYSLSSVVTVPSSSLGTQTYICNVNHKPSNTKVDKKVEPKSC
heavy: EVQLVQSGAEVKKPGESLKISCKGSGYSFTTYWLGWVRQMPGKGLDWIGIMSPVDSDIRYSPSFQGQVTMSVDKSITTAYLQWNSLKASDTAMYYCARRRPGQGYFDFWGQGTLVTVSSASTKGPSVFPLAPSSKSTSGGTAALGCLVKDYFPEPVTVSWNSGALTSGVHTFPAVLQSSGLYSLSSVVTVPSSSLGTQTYICNVNHKPSNTKVDKKVEPKSCDKTHTCPPCPAPEAAGAPSVFLFPPKPKDTLMISRTPEVTCVVVDVSHEDPEVKFNWYVDGVEVHNAKTKPREEQYNSTYRVVSVLTVLHQDWLNGKEYKCKVSNKALPAPIEKTISKAKGQPREPQVCTLPPSREEMTKNQVSLWCLVKGFYPSDIAVEWESNGQPENNYKTTPPVLDSDGSFFLYSKLTVDKSRWQQGNVFSCSVLHEALHSHYTQKSLSLSPGK
light: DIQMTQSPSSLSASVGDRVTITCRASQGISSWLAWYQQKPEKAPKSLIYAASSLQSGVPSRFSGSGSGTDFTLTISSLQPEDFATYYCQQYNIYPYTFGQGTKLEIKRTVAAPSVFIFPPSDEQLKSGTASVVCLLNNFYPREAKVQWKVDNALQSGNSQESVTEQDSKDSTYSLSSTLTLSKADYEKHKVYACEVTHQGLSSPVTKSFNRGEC
notes: KiH modified-Fd bispecific: TL1A VL-CL-Fc (hole), TL1A mFd, p40 HC (knob), p40 LC; LS
Regarding B1, the binding result in assay [1] and in assay [2] was “binds” in each case.

B2: p40TL1A-0033 bispecific antibody (bispecific antibody, human IgG1, kappa)
heavy: B1 heavy
light: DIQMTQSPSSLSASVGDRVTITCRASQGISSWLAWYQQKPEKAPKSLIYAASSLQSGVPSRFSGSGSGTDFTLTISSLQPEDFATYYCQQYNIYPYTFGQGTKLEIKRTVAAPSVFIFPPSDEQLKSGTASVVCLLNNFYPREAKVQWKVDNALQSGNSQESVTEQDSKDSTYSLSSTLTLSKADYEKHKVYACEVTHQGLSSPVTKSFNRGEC
chain 1: not shown
chain 2: B1 chain 2
notes: Single cell KiH, modified Fd format; IgG1 effector-function-minimized Fc with LS mutations
Take B2: in assay [3], the dissociation constant Kd worked out at 1.09 nM, the koff was 0.000127 s⁻¹ and the kon was 117000 M⁻¹ s⁻¹. Further, in assay [4], the Kd was approximately 1080 nM. In addition, in assay [5], the Kd was 0.622 nM, the koff is 8.21e-05 s⁻¹ and the kon worked out at 132000 M⁻¹ s⁻¹. Moreover, in assay [6], the “NF-κB assay IC50 (TF-1 reporter cells)” value came to 0.131 nM and the “NF-κB assay, Bioactivity relative to TL1A-0372” value came to 1.3 fold. Besides, in assay [7], the “KIT-225 STAT3 assay IL-23, Bioactivity relative to p40-0003” value amounted to 1.4 fold and the “KIT-225 STAT3 assay IL-23 IC50” value was 2.3 nM. For the same molecule, in assay [8], the “KIT-225 STAT4 assay IL-12, Bioactivity relative to p40-0003” value turned out to be 1.4 fold and the “KIT-225 STAT4 assay IL-12 IC50” value was 4.8 nM.
